Target: HA1-trimer (influenza A virus H1N1 A/California/07/2009)
Test: AUC

Q: Which stoichiometry N does the source give for HA1-trimer here?
A: Its stoichiometry N is 3.

Reference: PMC9530591
